According to the supplement of paper PMC12636428:

What follows are sequences tested on Saccharomyces cerevisiae (assay: transcriptional activation domain activity (GFP:mCherry ratio, weighted mean of sorted bins, harmonized to initial dataset scale) (arbitrary fluorescence ratio units); higher = stronger transcriptional activation). Conditions: beta-estradiol 1 µM; induction time 4 h.
Outline: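 Protein tiles carrying barcodes and fused to an estradiol-inducible synthetic transcription factor were placed at the URA3 locus of yeast diploids with a GFP reporter. Following 4 hours at 30 °C in SC with 1 uM beta-estradiol, cells were sorted into 8 GFP:mCherry bins, barcodes were sequenced, and tiles with fewer than 50 reads were discarded. Activation activity is given as the read-weighted mean of bin median fluorescence, averaged across barcodes and linearly mapped to the initial dataset scale.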

Sequence	transcriptional activation domain activity
GKGEEEVEEEERLYDRLVIANGHYRVPFVPPLPGLAAWQRAGRATHAAWYRAA	59800
DPQTLSVAHRSYLRCLTQRLLLTQPTFTECMYNLLIHTDHLVALIHRLDGVWS	38400
ELNEYLDLFKNNFLPHFPIIHPSLLDLDLDSLQRYTNEDGYDDAENAQLFDRL	117000
PTTTTTPSSPSTTCRSPTRRRAPRRRSACTGSRTRRGSPQSRRRCCRRTTSTT	28900
GIVLLLNAWKGQKIGFVSKDLNLVYSCIRIANEAEERHIAAGRYVDFMNLLLH	45500
SGGGRRRDGGGRRAGGRRDGAGGGRGRGDRGGGGGGGGERGERGGRPKKTQEE	50900
MLPTLRMLLGLICIAFLNRHCYGYSSRQMPMFAEAACFRIAHVLSPASAVYYP	59700
PKWHRYEDYEALFRVRNLCFPLILSGDIQLTLEYWWSIFSTSILRRPIFELNI	69600
ARVIRCNRSAELHVVNRLREVCEDQELRADSTALTSLVRTCRSDLRACINALQ	59300
MSDTKSARSGDKERDKRRREKESDSSSKDGRRGSHSHSKTPEEPKEKGHKRKH	13000
LLVANLTILDTFGLEESAIRIWNVCKPLGHLGQNALLILMLRLKDTMLIPWPL	72200
NCTNLPSVVVVGGSVPIDSQGLQIWSLLIYSIVLVPGLNLVVSSLIFLGIFWL	30000
MLAGAFLPLLFGFFFFSFPTSHTPPFHLLPPGFQFLPVSTSFSYFFCFCFFFP	39100
NTVWLILNDITIGIAFGTFLCENHLILAAYVNYTIEKLLIKEIQWILGWLDSW	84200
MNQTRHFFSPFFLFSLFLSFPSFLLSSFLLLFLPFYFSPSYLLLCLFSLIFYK	52800
MDNQAGEQKPKQRRVADRERKRAVRACDGCRRQKEKCDGGVPCRRCIRLRRQC	53600
ASSYAVQHTRKKGRGGGGGEAGNKPANKAARSWDKNAELHGTQGKMHVTIAVT	85900
PLNMLHLGTWYLDGFQPFEHLRANKELWNLLVRGQTEILSLPRFGWTGWLLSF	46900
AFLVGGGSAFWVLGYGLFYWASRLSLDSFTSVMLYLGYLLLLVLLVFLVTGTI	42700
KAVFKALPILVVASVGCASTNLLIRTVIIWRKEHLVISVLLLLYVGHWTILFV	32100
KSTARDTSAEVSSTKKRARSKAKKGDSDVEEDSDRGRSKTAKKSRKSTGAKSS	12800

Sequence	transcriptional activation domain activity
CFKHIGLYWAERGITLGRLEQLVGCHSLFSALERQASLRAWSILGMLLTIVWF	61400
FTMLIGRKRPDVSTCVLIAVVISQCLFYVVVFFVKILGLVKYFLLFSSLADKL	56300
RYLNITGRCRCSLQDLSFSVLLIRSLGAPLVELHVCCLYWWFGAYRLRFIFFI	55000
TPYWVLWNLRSSYGPVWQFLLKWIPFNMLLHRYYHCVKMELGYLFIFGNDFLR	56300
KDGKNEVIVDMQRVRERKREIVNSFRGGSEKRVADAGVTVLMGSASFVDSKTV	34900
MKGVCLKVGTTKPKKPNSGERKIARVRLSSGKVITAYIQGEGHNVQQHSVVLV	51000
QADYMCQYKGGLIGKHFKTLSQVMAFAVHGLVPPDVLEAWLILGRLTVLLWHT	49400
FFSSLFIYSFFVFSFSLSLSLCLLPSFFLSCFLSFFAIYYYLVGFLLLLLLLF	49100
DDAVVESFFSSSTDSTPMFEYENLEDNSKEWTSLFDNDIPVTTDDVSLADKAI	114000
ISAQEFSRNFTEDVDESLQSEIDLMNYDNEALNQLMAIDLDKLLGIFPNLSNF	140000
MALASPVFFFFYLYFIILLFGVGIYLFTFVMSYHTMVMQIIHVSCYNHRYIPV	47200
CSCSAGTRTSSSASSSAWRGASSSSSSRCSATRSSIARSRRTRSSCCARTRTC	36200
PIEYNTWLIFRQFVDIILLNDFVAYCMFAFSHFRVPNNLSITMHLLRWICGLA	42000
KDPWHIKALVAFVWILDVAHTILISCFVYTLTIVYYGRAQELLKFICLYILIL	45100
MCWACRILAAFPPPLPVFWFWFWFWFWFWFWFWLTAGWLAGFGFFVFAFCFLY	32500
EQYKLVCEALHERATFLEIAPYLAHQLPIMLPLYKWWQLPYYWAGCKVYDLLA	43400
WGTTFRDEGSRVRVLMRRLARMMRLGGRTPCQSDHISNVHFSAPADWQSTWGT	48000
MLDVNMSCPFADIRYLLVFSCYFADYLLMLQIWGFCLWLFTLIYMVGGVWLMV	34300
MDILDIFFLFYSLLVSFLFFFLLITLLFLSPFISISFYFLTAFYVYFWVFFRA	34100
TGGISELQNALDDTRASFAYVRLQYANDKESKREKFILVIWIGKSVKVMRKAK	40200
